# Results taken from PMC10611751.
# Target: Ankyrin-G ANK repeats 8-24
# Test: ITC; E-cadherin proteins in the syringe (e.g. 200 μM Trx-E-cadherin) titrated into AnkG in the cell (e.g. 20 μM Trx-AnkG R1-24); 25 °C; 50 mM Tris, 100 mM NaCl, 1 mM EDTA, 1 mM DTT, pH 7.8; one-site binding model
# Chain of E-cadherin C-terminal domain (residues 734-884) (P09803 734-884): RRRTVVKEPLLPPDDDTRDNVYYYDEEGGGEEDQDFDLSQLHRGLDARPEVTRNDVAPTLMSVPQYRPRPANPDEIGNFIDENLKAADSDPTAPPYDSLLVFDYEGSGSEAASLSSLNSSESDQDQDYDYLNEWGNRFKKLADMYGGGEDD
# Chain of E-cadherin 828-869 (containing both site-2 and site-3) (P09803 828-869): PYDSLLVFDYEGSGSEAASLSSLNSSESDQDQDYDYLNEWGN
# Chain of E-cadherin 751-775 (site-1) (P09803 751-775): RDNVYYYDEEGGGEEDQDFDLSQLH
row,Substance,Kd
1,E-cadherin C-terminal domain (residues 734-884) (from UniProt P09803 734-884) (domain or fragment),1.5 µM
2,E-cadherin 828-869 (containing both site-2 and site-3) (from UniProt P09803 828-869) (domain or fragment),2.5 µM
3,E-cadherin 751-775 (site-1) (from UniProt P09803 751-775) (domain or fragment),1.3 µM
